Results on one substance are retold here after patent publication US20180271864.

In this data set the target is T1, Flag-tagged human PZR (UniProt O95297).
T1 sequence: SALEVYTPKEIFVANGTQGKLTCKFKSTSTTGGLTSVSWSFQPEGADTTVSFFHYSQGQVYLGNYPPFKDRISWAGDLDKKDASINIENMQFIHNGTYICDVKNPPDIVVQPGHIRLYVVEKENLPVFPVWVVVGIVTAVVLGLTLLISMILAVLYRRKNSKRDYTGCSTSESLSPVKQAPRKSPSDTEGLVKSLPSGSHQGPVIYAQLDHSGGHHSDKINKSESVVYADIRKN

Consider Src recombinant protein, for which the “in vitro Src kinase assay, immunoblot with anti-pPZR (Y241 or Y263) antibodies” value is “These results implicated c-Src as directly phosphorylating PZR at Shp2 binding sites”.
